Results reported in patent publication US20130243802A1 (ATLANTIC RESEARCH CENTER INSTITUTE, published 2013).

Assays:
[1] = biological target: T1, Recombinant Mycobacterium tuberculosis HSP70 (Aalto, Eire) (Mycobacterium tuberculosis, UniProt P9WMJ9 1-625); experiment: CHIEF gel
T1 construct: also called mtHSP70; Mycobacteria HSP70

E. coli orthologue, dnaK = E. coli orthologue, dnaK (E. coli, UniProt P0A6Y8 2-638); experiment: CHIEF (counter HSP isoelectric focusing) gel
Chain of E. coli orthologue, dnaK (P0A6Y8 2-638 limits assumed): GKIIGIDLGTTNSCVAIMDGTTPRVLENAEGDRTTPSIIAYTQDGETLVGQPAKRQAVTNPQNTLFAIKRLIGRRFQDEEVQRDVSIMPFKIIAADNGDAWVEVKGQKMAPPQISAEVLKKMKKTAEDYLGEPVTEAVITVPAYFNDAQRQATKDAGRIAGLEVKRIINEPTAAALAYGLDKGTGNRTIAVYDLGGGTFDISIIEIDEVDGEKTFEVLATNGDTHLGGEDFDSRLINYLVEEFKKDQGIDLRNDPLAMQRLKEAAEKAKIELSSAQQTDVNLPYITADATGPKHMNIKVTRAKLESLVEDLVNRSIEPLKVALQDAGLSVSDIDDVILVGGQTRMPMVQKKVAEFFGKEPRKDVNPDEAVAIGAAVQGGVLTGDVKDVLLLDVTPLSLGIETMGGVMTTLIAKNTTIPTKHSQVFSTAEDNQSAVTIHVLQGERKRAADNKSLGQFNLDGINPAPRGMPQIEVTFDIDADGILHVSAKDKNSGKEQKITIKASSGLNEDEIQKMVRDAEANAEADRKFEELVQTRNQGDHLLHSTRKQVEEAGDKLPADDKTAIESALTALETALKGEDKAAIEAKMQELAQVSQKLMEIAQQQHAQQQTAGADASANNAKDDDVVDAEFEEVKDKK

T1 sequence (P9WMJ9 whole entry): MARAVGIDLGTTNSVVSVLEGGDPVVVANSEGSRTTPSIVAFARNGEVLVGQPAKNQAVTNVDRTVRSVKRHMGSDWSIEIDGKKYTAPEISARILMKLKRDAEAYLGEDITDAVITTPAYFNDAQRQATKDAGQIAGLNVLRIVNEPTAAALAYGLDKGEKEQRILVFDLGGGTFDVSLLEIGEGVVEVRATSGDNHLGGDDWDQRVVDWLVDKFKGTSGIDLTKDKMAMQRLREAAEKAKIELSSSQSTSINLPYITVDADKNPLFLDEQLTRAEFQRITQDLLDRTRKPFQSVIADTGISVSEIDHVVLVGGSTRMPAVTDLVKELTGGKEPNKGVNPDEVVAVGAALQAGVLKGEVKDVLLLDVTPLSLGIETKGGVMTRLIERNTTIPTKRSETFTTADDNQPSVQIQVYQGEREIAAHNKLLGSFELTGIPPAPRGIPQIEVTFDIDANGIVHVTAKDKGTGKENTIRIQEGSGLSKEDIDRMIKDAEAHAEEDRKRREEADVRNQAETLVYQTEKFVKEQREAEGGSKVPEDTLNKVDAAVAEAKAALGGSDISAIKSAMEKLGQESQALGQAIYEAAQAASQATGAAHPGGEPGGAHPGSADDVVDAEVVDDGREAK

Binder | binding result [1] | binding result (E. coli orthologue, dnaK)
ARTTHYGSLPQKAQGHR (range 62-78; Synthetic candidate peptide; also called MBP peptide 1 (62-78)) [MBP 62-78 peptide] | no binding | –
PSQGKGRGLSLSRFSWGA (Synthetic peptide (New England Peptide)) [bMBP 100-117 peptide] | binds | –
bovine myelin basic protein (other, UniProt P02687 1-169, looked up, also called bMBP; MBP) AAQKRPSQRSKYLASASTMDHARHGFLPRHRDTGILDSLGRFFGSDRGAPKRGSGKDGHHAARTTHYGSLPQKAQGHRPQDENPVVHFFKNIVTPRTPPPSQGKGRGLSLSRFSWGAEGQKPGFGYGGRASDYKSAHKGLKGHDAQGTLSKIFKLGGRDSRSGSPMARR | binds | no binding
